Assay results as given in the DeepSol protein solubility set.

Assay: soluble on expression in E. coli; label from the status in PepcDB or PDB records

MLRKLSKFSNKGEVFMGLLEGKRALITGVANERSIAYGIAKSFHREGAQLAFTYATPKLEKRVREIAKGFGSDLVVKCDVSLDEDIKNLKKFLEENWGSLDIIVHSIAYAPKEEFKGGVIDTSREGFKIAMDISVYSLIALTRELLPLMEGRNGAIVTLSYYGAEKVVPHYNVMGIAKAALESTVRYLAYDIAKHGHRINAISAGPVKTLAAYSITGFHLLMEHTTKVNPFGKPITIEDVGDTAVFLCSDWARAITGEVVHVDNGYHIMGVFGREEEIKKEVYGD
soluble on expression in E. coli: soluble

HKDFTWNTTLSATWSKEKIDKLPDGDLISENLFTGEPIHAIYGYKYAGIWGSDTPKETLDAYGVNPGFIKIETVDKNGDGGVHKYSTDDRQILGHTNPDWIIGLNNSFTYKNFDLSVFAMARYGQTINSDLLGYYTAEQSVTKNQLAGVDYWTEDNQGAYFPRPGTGDEQKTVYPSLRVHDGSFIKIKNITLGYTLPANISRKVLMEKCRIYATAYNPFIFVKDKQLKDTDPETNGSDAFPTYRQFVFGVNLTF
soluble on expression in E. coli: not soluble

CDAGRAKDKANEMMQGGNSLFGAMEGGTKEQVVLDMIDLGEHDAKTLLECEYETLGIHVSGNPLDEFKEEIKGFKNLVKSIDIEELEIGS
soluble on expression in E. coli: not soluble

MGSDKIHHHHHHMIGAWCFLDHAGPVTFPAGNGLDVGPHPHIGLQTFTWMIEGTMMHTDSLGSKQLIRPKQVNLMTAGHGISHTEVAPDTETQMHAAQLWIALPDHKRNMDPKFEHYPDLPVVEKDGLEFTVLVGEYLETTSPVVVHTPLVGVDLIATQDTKTRIPLNPEFEYGFMALDGVAHVNGHELTADNMVVLDTGLNEIEIEVKKGNRVLLIGGEPFETPILLWWNFVARTMDDLKEAREQWVNHDVRFGEIPDYVGARLEAPVLPDQMRASK
soluble on expression in E. coli: not soluble

MYVAVKGGEKAIDNAHRLLARKRRGDTALPELSVEQIRQQMPLAVSRVMTEGSLYDEQLAALAIKQAAGDLMEAIFLLRAYRTTLPRFAASLPLDTAGMRLQRRISATYKDLPGGQLLGPTFDYTHRLLDFSLLAEGDYPGPEVERGASLEPCPRVLGLLDREGLMTPEYELPGAVPDITREPLDFPTGRAQRLQALARGDEGFLLALGYSTQRGYGRNHPFAGEIRIGACEVWLEPEELGFAVPVGEIEVTECEMVNQFVGSREELPQFTRGYGLAFGYAERKAMGMALVDRALRAEEYGEEVVSPAQQEEFVLMHCDNVEAGGFVSHLKLPHYVDFQSELELIRKLRRPGVAESAQPTVQEKRA
soluble on expression in E. coli: not soluble

MPGIIQIDDMNQSQALIGNNDEHLKAIEESFDVVIHARGQEVAVKGTKIENVEKAESVLINLLKVIDLGNNITIKDVEAAIKMAHNNTIQHLLDLYDEEITKDAFGKTIRAKTMGQRIYVNAMKNNDLVFGIGPAGTGKTFLAVVYAAKQLRKGAVKRIVLTRPAVEAGESLGFLPGDLKEKVDPYLRPLYDGLYTVLGREQTERFIERGIIEIAPLAYMRGRTLEDAFVILDEAQNTTHAQMKMFLTRLGFGSKMVVTGDQTQIDLPKGVKSGLKEAVSRLHNVKGISILKLDQSDVVRHPLVSKIIEHYEGEN
soluble on expression in E. coli: not soluble

MAETTPKVKGHVVILPYPVQGHLNPMVQFAKRLVSKNVKVTIATTTYTASSITTPSLSVEPISDGFDFIPIGIPGFSVDTYSESFKLNGSETLTLLIEKFKSTDSPIDCLIYDSFLPWGLEVARSMELSAASFFTNNLTVCSVLRKFSNGDFPLPADPNSAPFRIRGLPSLSYDELPSFVGRHWLTHPEHGRVLLNQFPNHENADWLFVNGFEGLEETQDCENGESDAMKATLIGPMIPSAYLDDRMEDDKDYGASLLKPISKECMEWLETKQAQSVAFVSFGSFGILFEKQLAEVAIALQESDLNFLWVIKEAHIAKLPEGFVESTKDRALLVSWCNQLEVLAHESIGCFLTHCGWNSTLEGLSLGVPMVGVPQWSDQMNDAKFVEEVWKVGYRAKEEAGEVIVKSEELVRCLKGVMEGESSVKIRESSKKWKDLAVKAMSEGGSSDRSINEFIESLGK
soluble on expression in E. coli: soluble

LEPRHAMLLRCRLPGGVITTKQWQAIDKFAGENTIYGSIRLTNRQTFQFHGILKKNVKPVHQMLHSVGLDALATANDMNRNVLCTSNPYESQLHAEAYEWAKKISEHLLPRTRAYAEIWLDQEKVATTDEEPILGQTYLPRKFKTTVVIPPQNDIDLHANDMNFVAIAENGKLVGFNLLVGGGLSIEHGNKKTYARTASEFGYLPLEHTLAVAEAVVTTQRDWGNRTDRKNAKTKYTLERVGVETFKAEVERRAGIKFEPIRPYEFTGRGDRIGWVKGIDDNWHLTLFIENGRILDYPARPLKTGLLEIAKIHKGDFRITANQNLIIAGVPESEKAKIEKIAKESGLMNAVTPQRENSMACVSFPTCPLAMAEAERFLPSFIDNIDNLMAKHGVSDEHIVMRVTGCPNGCGRAMLAEVGLVGKAPGRYNLHLGGNRIGTRIPRMYKENITEPEILASLDELIGRWAKEREAGEGFGDFTVRAGIIRPVLDPARDLWD
soluble on expression in E. coli: soluble

MLILNQRQQELLDMVKRESYVSVEKLADHFSVTRQTIRRDIALLAEHQLLQRYHGGASVLSSVENVAYQARQVLCIEEKRRIAACVARHIPDNASLFINLGTTTEEVAKALHRHRGLRVITNNLHVAEQMCDYPDCEVIVLGGSLRKRDRGLTGEATVQMIRQFRVDYGIIGVSSIESDGTLRDYDYREVRTTEAIIQQSRQVFLAADHSKFDRPALVELGRLSQIAALFTDKPVPPAIAHVMQEAGTQLHVAELEHHHHHH
soluble on expression in E. coli: soluble

MEKERYFQAETEGEQPETKAEEATAAITQLGQTNVPQMDPDTNIHCLTIVGQIEGHIQLPPQNKATKYEHVIPQIVAIEQNPKIEGLLVILNTVGGDVEAGLAIAEMLASLSKPTVSVVLGGGHSIGVPIAVSCNYSFITETATMTIHPIRLTGLVIGVPQTFEYLDKMQERVVRFVTKHSKISEEKFKELMFSKGNLTRDIGTNVVGPDAVRYGLIDEVGGVSQAMAKLRELIAMRKNGEGKMIQ
soluble on expression in E. coli: not soluble

MGSDKIHHHHHHNYENINSNPYEAPDLSADGYALGSAMNNLAGCVVSPDVNTAQFTDCLLGGPLGGYFADSNAGFTETISNFNPKDDWSRVFLKSDKIIPTLYSNLTQVKLVSQNTNDPVPYAIAQVIKVAAMHRVTDAFGPIPYSQIGANGEIATPYDSQEVTYNTFFDELNAAIATLNENSNEQLVPTADYIYKGDVKKWIRFANSLKLRLAIRIAYANPVKAQQMAEEAVNPANGGVIESNADNATWNYFETSQNPIYVATRYNQVQTSDHGGVPCLTGGDTHAAADIICYMNGYKDNRREKFFTKSEWAGQDYVGMRRGIVIPELKTTGHKYSGVNIAPTSPLYWMNAAEVAFLRAEGQAVFNFSMGGTAESFYNQGIRLSFEQWGADGVEDYLKDDVNKPTAYTDPAGTNTYQNALSNITIKWNDSADKEEKQERIIVQKWIANWQLGNEAWADFRRTGYPKLIPVKENKSGGVVDSEKGARRMPYPLDEFVSNKANVEYAIANYLHGADNMATDVWWASKK
soluble on expression in E. coli: not soluble

LSYPNATESVYGLTRYSTNDEAIAGVNNESSITPAKFTVALNNVFETRVSTESSNGVIKISSLPQALAGADDTTAMTPLKTQQLAVKLIAQIAPSKNAATESEQGVIQLATVAQARQGTLREGYAISPYTFMNSTATEEYKGVIKLGTQSEVNSNNASVAVTGATLNGRGSTTSMRGVVKLTTTAGSQSGGDASSALAWNADVIHQRGGQTINGTLRINNTLTIASGGANITGTVNMTGGYIQGKRVVTQNEIDRTIPVGAIMMWAADSLPSDAWRFCHGGTVSASDCPLYASRIGTRYGGSSSNPGLPDMR
soluble on expression in E. coli: soluble

MGSDKIHHHHHHMNSLGAVIKEIRKNRKLTQKMLSEDICSQSVLSRIENNEELPNVLVMQQLCDRLGVTVDQIMRYKSGDVHVVTYSFEKMAEYFRHKKYQLLLNYLKENRIEEQLYLDTDWQKYYYYLGSCELFVLNDYEKAIASLRKGLSFTYKADKLNVSDLEIQLISCLGATYGYMGNRVEAERFLSLSIHYFNQLPNERSNAELTKIFFNYADFLFKNYTEKDAEIYVDQGITWARKKNSYYYLSELLNLKYLVLMRKNKHEEAERYLNLAQQMKNVESGNL
soluble on expression in E. coli: not soluble

MAFSAPEPELSVVVPTLNEAETVATLLAALAAQRDVALELLLCDGGSTDGTAALVRGRAGDLPFPVTVTETPPGRGRQMNAGAAAARGATFLFLHADSIIADPLALRRGLDHLAAARRSDKRAAGHFRLRFAGDSPSPLAYRFYERKARLHRPGCTHGDQGLLIPREFFDQVGPFDEGLPILEDVRLAERIAAMGTWVLLPAEIITSARRFETEGLRERQTLNAILMNFAAIGWQQGVEELVAGYRSQDRSGRLRLGPHLARIAGLTAALPRQERLRLWYLTGGYVRGNAWQIPLFLDVRNAWRRGGDDGATPLLSLHDRWFDLLTDNPAGRAAAALMTFLWFRLTLRREMKDWPGILRTPLEHHHHHH
soluble on expression in E. coli: not soluble

NVRVITDENWRELLEGDWMIEFYAPWCPACQNLQPEWESFAEWGEDLEVNIAKVDVTEQPGLSGRFIINALPTIYHCKDGEFRRYQGPRTKKDFINFISDKEWKSIEPVSSWF
soluble on expression in E. coli: soluble

MGNRLSKIATRTGDDGTTGLGDGSRVRKDDARIAAIGDVDELNSQIGVLLAEPLPDDVRAALSAIQHDLFDLGGELCIPGHAAITDAHLARLDGWLAHYNGQLPPLEEFILPGGARGAALAHVCRTVCRRAERSIVALGASEPLNAAPRRYVNRLSDLLFVLARVLNRAAGGADVLWDRTRAH
soluble on expression in E. coli: soluble

MSLNDTALTITAVRAVLLSHRYQPGEELTWVGGTIWSWDAALVEVTLSDGTTGIGEAGAGIMAAAAVPGIVDAFRPYVLDHEFGHPLEVADHLRAYTAFWARGGMLNGVAGAIETAAVDAVAKRLGVPAYEVLGGLKRDWIESYASGGLGTTFGEVSDWAAAQIEAGFGTVKFRAMTDPDTTIKLLDHVTALLPEGIQFVIDAVQACASDPWPVDEAIRVGQKAAELGARWYEEPCQADDVAGYAAVRAAVNVPISGVESNGTVRDFAQLLDAKALDVAQPDVTFVGGPKAFAQVAELAHATGVKTVPHVWGSGVTFAANLHTVLANPYVELFEYCTLPNPLRDAMRVEEVDFRDGGIVAPTAPGLGIQLTPEIEAQFPFSPGGGHVIREGHHHHHH
soluble on expression in E. coli: soluble

MREAMFYEKLDDNKVRCHICPRHCIIKEGERGFCWNRENINGVLYAVGYGKVCSLAIDPIEKKPLFHFYPTTQVVSLAIGGCNFRCLHCQNWTISQFPPDEIPYREMTPEEIVEVAIRYNCPGISYTYTEPTVYYEFMYDTSVIARENGMFNVMITNGYIEKEPLKALPVDAMNIDIKGNADFYKKVCKATLEPVLETCKLAKKLGIWVEVTNLIVPNYNDNIDDLLFIIHFVRDELGRETPLHFSRFHPDYKLTDVPPTPIETLEMARNLAIEEGLKYVYIGNVPGHEGENTYCPNCGALLIERYIFNAKIINLDVETKRCKICGEKIDIVL
soluble on expression in E. coli: not soluble

PMILGYWNVRGLTHPIRLLLEYTDSSYEEKRYAMGDAPDYDRSQWLNEKFKLGLDFPNLPYLIDGSRKITQSNAIMRYLARKHHLCGETEEERIRADIVENQVMDNRMQLIMLCFNPDFEKQKPEFLKTIPEKMKLYSEFLGKRPWFAGDKVTYVDFLAYDILDQYHIFEPKCLDAFPNLKDFLARFEGLKKISAYMKSSRYLSTPIFSKLAQWSNK
soluble on expression in E. coli: soluble

AATQTWTGDLAIVTIPFSSLRFVKVTPPFSYKKRRAVIETHYDQATKVLLEFSRRWWEFTEADWKRELDAIAPGLYDYYQQWGEDDAEAALALPQSVRNLPTGLLGAHPSVDESRIGEEQVEYYRNSELR
soluble on expression in E. coli: soluble
